# According to patent US20210130473A1, “TGFßR1 INHIBITOR-ASGR ANTIBODY CONJUGATES AND USES THEREOF” (Silverback Therapeutics, Inc., priority 2019, published 2021):
# T1: human ASGR1 extracellular domain (ECD) (Homo sapiens, UniProt P07306)
# T1 sequence (P07306 62-291 limits assumed): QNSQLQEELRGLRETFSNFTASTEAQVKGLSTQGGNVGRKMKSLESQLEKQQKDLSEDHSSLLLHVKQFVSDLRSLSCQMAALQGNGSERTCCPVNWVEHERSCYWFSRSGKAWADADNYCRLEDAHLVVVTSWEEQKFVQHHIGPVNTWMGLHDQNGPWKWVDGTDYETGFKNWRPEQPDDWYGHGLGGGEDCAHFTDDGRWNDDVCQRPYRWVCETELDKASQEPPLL
# T2: HepG2 cells (which express ASGR1) (Homo sapiens, UniProt P07306)
# T2 construct: endogenous in cells; host or cells: HepG2
# T2 sequence (P07306 1-291): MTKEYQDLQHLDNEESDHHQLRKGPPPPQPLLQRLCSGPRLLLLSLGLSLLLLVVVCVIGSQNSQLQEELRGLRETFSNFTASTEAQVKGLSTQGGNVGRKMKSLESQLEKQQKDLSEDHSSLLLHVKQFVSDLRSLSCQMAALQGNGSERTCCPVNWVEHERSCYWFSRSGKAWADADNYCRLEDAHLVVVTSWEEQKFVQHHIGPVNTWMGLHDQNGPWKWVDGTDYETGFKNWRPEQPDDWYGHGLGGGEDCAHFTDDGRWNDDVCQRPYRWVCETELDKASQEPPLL
# T3: rat ASGR1 (Rattus norvegicus, UniProt P02706)
# T3 construct: expressed in transfected cells; host or cells: CHO-S (transient)
# T3 sequence (P02706 1-284): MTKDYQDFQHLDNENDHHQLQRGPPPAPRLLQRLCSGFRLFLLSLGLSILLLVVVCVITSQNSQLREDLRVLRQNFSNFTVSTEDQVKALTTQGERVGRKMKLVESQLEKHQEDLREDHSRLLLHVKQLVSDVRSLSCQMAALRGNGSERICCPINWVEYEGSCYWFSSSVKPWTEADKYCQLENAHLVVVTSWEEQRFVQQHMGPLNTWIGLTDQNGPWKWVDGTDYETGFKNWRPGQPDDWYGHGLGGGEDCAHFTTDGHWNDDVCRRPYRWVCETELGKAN
# B1: hzL4L-7: "humanized anti-ASGR1 antibodies hzL4L-7 and hzL4L-14 as compared to parent mouse anti-ASGR1 antibody L4L" (antibody, V domains shown)
# VH: QVQLQESGPGLVKPSQTLSLTCTVSGYSISSDYAWNWIRQHPGKGLEWIGYISYSGSTRYNPSLKSRVTITRDTSKNQFSLKLSSVTAADTAVYYCARRYRYDEGYGMDYWGQGTTVTVSS
# VL: DIQMTQSPSSLSASVGDRVTITCRASENIYSNLAWYQQKPGKAPKLLIYAATNLADGVPSRFSGSGSGTDFTLTISSLQPEDFATYYCQHFWGTPPWTFGGGTKVEIK
# B2: hzH8K-1: "humanized anti-ASGR1 antibodies hzH8K-1 and hzH8K-10 as compared to parent mouse anti-ASGR1 antibody H8K" (antibody, V domains shown)
# VH: QVQLQESGPGLVKPSQTLSLTCTVSGGSISSDYAWNWIRQHPGKGLEWIGYRSYRGSTSYNPSLKSRVTISVDTSKNQFSLKLSSVTAADTAVYYCARRGYYGSSSHWYFDVWGQGTTVTVSS
# VL: DIQMTQSPSSLSASVGDRVTITCRASENIYSYLAWYQQKPGKAPKLLIYNAKTLAEGVPSRFSGSGSGTDFTLTISSLQPEDFATYYCQHHYGTPLTFGGGTKVEIK
# How the values were obtained:
# [1] = molecular target: T1, human ASGR1 extracellular domain (ECD); assay: Effect of calcium on anti-ASGR1 binding and dissociation (OCTET Red 96, Penta-His biosensors); set-up: key to Ca2+ sensitivity during association / Ca2+ sensitivity during dissociation / Ca2+ Sensitivity: N = No; Y = Yes; conditions: for Ca2+ sensitivity during association: binding to human ASGR1 ECD with or without calcium; for Ca2+ sensitivity during association / Ca2+ sensitivity during dissociation: OCTET; for Ca2+ sensitivity during dissociation: dissociation from human ASGR1 ECD with or without calcium; for Ca2+ Sensitivity: overall summary column
# Description: The ability of anti-human ASGR1 antibodies of this disclosure to bind to human ASGR1 in the presence or absence of calcium in binding buffer was examined. Briefly, ASGR1 antibodies were bound to immobilized human ASGR1 extracellular domain (ECD) at saturating levels and subsequently dissociated under three different conditions as follows: (a) binding and dissociation with buffer containing calcium (PBS+1% BSA+0.2% Tween20+0.9 mM CaCl2), pH 7.4); (b) binding with buffer containing calcium and dissociation with buffer lacking calcium; and (c) binding and dissociation with buffer lacking calcium. Analysis of ASGR1 antibody binding to human ASGR1 ECD was performed using the OCTET® Red 96 instrument and analyzed using the OCTET®Data Analysis Software 9.0 (ForteBio). His-tagged human ASGR1 ECD was immobilized to OCTET® Penta-His biosensors and ASGR1 antibodies were subjected to avidity binding under the conditions described above. Association with the ASGR1 ECD was measured by the rate of and increase in magnitude of signal response at a given antibody concentration. Dissociation from the ASGR1 ECD was measured the rate of loss in signal upon removal of the antibody and further incubation with or without Ca^2+. […] Also tested were humanized antibodies hzH8K-1 and hzL4L-7.
# Further analysis of the antibodies of this disclosure was to determine whether the presence of calcium was needed for binding (i.e., during association) of the antibodies to human ASGR1 ECD. […]
# [2] = molecular target: T2, HepG2 cells (which express ASGR1); assay: Guava HepG2 cell binding screen of anti-ASGR1 mAbs; conditions: humanized L4L clones; Good / Poor
# Description: Additionally, hybridomas producing monoclonal antibodies (mAbs) specific for human ASGR1 were prepared from Balb/C mice immunized with ASGR1-AviHis at a service provider using their propriety protocol. Antibody heavy and light chain sequences were obtained, amplified, and cloned. Clone supernatants containing the expressed mAbs were screened for binding to a human ASGR1-IgG1Fc fusion protein, and those with a positive signal as measured by enzyme linked immunosorbent assay (ELISA) were screened for cell binding on HepG2 cells (which express ASGR1). […] The isolated mAbs were further analyzed for the additional characteristics including, for example, titer, low aggregate content following protein A purification, high titer, lack of cross-blocking of ligand GalNac, calcium sensitivity, and cross-reactivity with rat ASGR1 protein.
# rat ASGR1 = molecular target: T3, rat ASGR1; assay: Binding to cell surface expressed rat ASGR1 (transiently transfected CHO-S cells, GUAVA)
# Description: Anti-human ASGR1 antibodies of this disclosure were examined for cross-reactivity with Cynomolgus macaque and rat ASGR1. Briefly, sequence encoding Cynomolgus macaque or rat ASGR1 was transiently transfected into CHO-S cells. Transfected cells were before performing cell binding assay. A total of about 1.5×10^4 transfected cells/well were added to 96-well V-bottom assay plate, incubated at 37° C., 5% CO2 for 48-72 hours, and then washed with culture medium before adding 100 μl of each ASGR1 antibody at different concentrations starting from 100 nM and 3-fold dilutions to a total of eight wells. The cells with antibody were incubated for 40 minutes at 4° C., then washed three times with 200 μl of fresh culture medium. To each well was added 50 μl PE conjugated goat anti-human Fc (SouthernBiotech) at 1:200 dilution in culture medium and then incubated at 4° C. for 20 minutes. After washing the plate once, the treated cells were resuspended in 200 μl culture medium and then the stained cells were analyzed on GUAVA® using Incyte software.
# Anti-human ASGR1 antibodies of this disclosure were examined for cross-reactivity with Cynomolgus macaque and rat ASGR1. […] After washing the plate once, the treated cells were resuspended in 200 μl culture medium and then the stained cells were analyzed on GUAVA® using Incyte software.
Molecule,Ca2+ sensitivity during association [1],Ca2+ sensitivity during dissociation [1],Ca2+ Sensitivity [1],calcium sensitivity of binding to human ASGR1 ECD ([1]; sensitive: difference in binding signal after dissociation with vs without calcium >±10%),Guava HepG2 Screen [2],binding to rat ASGR1 (rat ASGR1)
B1,N,N,N,lacking sensitivity to calcium,Good,not rat cross-reactive
B2,N,N,N,,,not rat cross-reactive
